Experimental data as given in patent publication US20250171560A1.
Values belong to the binder of their own block, whether it stands above or below them.

Target: T1, C-terminal flag-tagged ACPP transmembrane protein expressed on 293T cells (pcDNA-ACPP-flag)
T1 sequence: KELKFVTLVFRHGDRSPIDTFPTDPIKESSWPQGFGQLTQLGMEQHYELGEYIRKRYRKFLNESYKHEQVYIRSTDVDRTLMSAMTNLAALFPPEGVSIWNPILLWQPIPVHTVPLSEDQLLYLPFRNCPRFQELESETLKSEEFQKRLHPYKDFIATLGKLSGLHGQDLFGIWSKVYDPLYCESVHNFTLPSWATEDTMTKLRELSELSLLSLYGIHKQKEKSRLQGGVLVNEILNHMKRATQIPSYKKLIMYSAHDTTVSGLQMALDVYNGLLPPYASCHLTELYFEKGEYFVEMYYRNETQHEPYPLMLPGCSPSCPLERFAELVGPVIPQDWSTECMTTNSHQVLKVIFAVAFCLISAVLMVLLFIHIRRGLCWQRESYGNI
Assay: flow cytometry on 293T cells transfected with pcDNA-ACPP-flag, surface staining without permeabilisation, goat anti human-FITC secondary antibody

B4: ACPP antibody S9F5 (human full antibody) (antibody, V domains shown)
VH: EVQLVESGGGLVQPGGSLRLSCAASGFTFSNYWMSWVRQAPGKGLEWVAGISASGGNKYYADSVKGRFTISRDNSKNTLYLQMNSLRAEDTAVYYCAKGPIQLKRHKYVLDYWGQGTLVTVSS
VL: SYELTQPPSVSVAPGQTARITCGGDALPNNSVRWYQQKPGQAPVLVIYGNSERPSGIPERFSGSNSGNTATLTISGTQAEDEADYYCQVSDKSTKYSVFGGGTKLTVL
- % of cells in the positive gate V1R: 0.15%

B5: ACPP antibody S4C7 (human full antibody) (antibody, V domains shown)
VH: QMLVQSGAEVKRPGSSVTVSCETSGDTFSRYAISWLRQAPGQGLEWLGWISGNSGRADYAQNFQGRVTMTTDRSTSTAYLNLRSLRSDDTAVYYCARDAPMLFGVRGGGYYFGMDVWGQGTTVTVSS
VL: EIVLTQSASSLSASVGDRVTITCRTSQNIYRYLNWYQQKPGKAPKLLIFGASTLQTGVPSRFSGSGSGTDFTLTITGLQPEDLATYYCQHSFKLPFTFGQGTRLEIK
- % of cells in the positive gate V1R: 0.1%

The remaining lines, values ahead:

- % of cells in the positive gate V1R: 0.01%
B1: ACPP antibody S12D9 (human full antibody) (antibody, V domains shown)
VH: EVQLVQSGAEVRKPGSSVKVSCKASGDNFNNYGITWVRQAPGQGLEWMGRLITVLGLDNYAQKFQGRLTITADESTGTAYMELTGLEPEDTAVYYCARDIMSPEAIDAFDVWGQGTLVTVSS
VL: QPVLTQDPVVSVALGQTVRITCQGDSLRSYYATWYQQKPGLAPVRVIFGKNSRPSGIPDRFSGSSSGNTASLTITGAQAEDEADYYCNSWDNSANHPVFGGGTKLTVL

- % of cells in the positive gate V1R: 0.18%
B2: ACPP antibody S10E12 (human full antibody) (antibody, V domains shown)
VH: B1 VH
VL: DIQMTQSPSSLSASVGDRVTITCRASQDVSNYLNWYQQKPGKAPKLLIYGASNRQTGVPSRFSGSGSGTDFTLTISSLQPEDFATYYCQQEDRFPTTFGQGTKVEIK

- % of cells in the positive gate V1R: 0.06%
B3: ACPP antibody S12D4 (human full antibody) (antibody, V domains shown)
VH: QMQLVQSGAEVRRPGSSVKVSCKTSGGTLNNYDINWVRQAPGQGLEWMGWMNPTSGQADFAQKFQGRVSMTRDTSINTAFMELNTLRSEDTAVYYCVRRGGKYWGQGTLVTVSS
VL: QPVLTQDPAVSVALGQTVRITCQGDSLRKYYASWYQQKPGQAPRLVMYDENDRPSGIPDRFSGSSSGNTASLTITGAQADDEADYYCNSRDSSGHHVVFGGGTKVTVL
